According to IntAct's records for PubMed 26455799:

B1: Cilia- and flagella-associated protein 36 (Mus musculus), Q8C6E0 (parent)
chain: MAAEEEDEVEWVVESIAGFLRGPDWSIPILDFVEQKCEVFDDEEESKLTYTEIHQEYKELVEKLLESYLKEIGINEDQFQEACTSPLAKTRTSQAILQPVLAAEDFTIFKAMMVQKNIEMQLQAIRIIQERNGVLPDCLTDGADVVSDLEQEEMKILREVLRKSKEEYDQEEERKRKKQSSEAKMEELPVYTSEAEKMSNSQGDGEHFVQPPSEVKVHFANQSVQPLARKMELLPETSSLTQKGLKIPGLEHASMEGPIANLSALGTEELRQREHYLKQKRDKLLSMRKDTRTKQIQNTEQKGKPTREAEEMTEKPEMTAEEKQTLLKRRLLAEKLKEEVINK
B2: ADP-ribosylation factor-like protein 2 (Mus musculus), Q9D0J4 (parent)
chain: MGLLTILKKMKQKERELRLLMLGLDNAGKTTILKKFNGEDVDTISPTLGFNIKTLEHRGFKLNIWDVGGQKSLRSYWRNYFESTDGLIWVVDSADRQRMQDCQRELQSLLVEERLAGATLLIFANKQDLPGALSCNAIQEALELDSIRSHHWRIQGCSAVTGEDLLPGIDWLLDDISSRVFTAD

Variants of: B1
Details: with arl3_mouse Arl3, Q9WUL7
arl3_mouse Arl3, Q9WUL7, sequence (Q9WUL7 whole entry): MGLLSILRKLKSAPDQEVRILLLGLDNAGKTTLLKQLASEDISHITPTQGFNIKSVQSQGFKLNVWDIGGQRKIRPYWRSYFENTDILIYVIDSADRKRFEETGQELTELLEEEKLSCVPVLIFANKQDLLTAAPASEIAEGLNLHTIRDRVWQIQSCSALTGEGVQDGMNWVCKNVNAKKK

Effect of a mutation on the interaction, decreasing interaction strength:
E44R;L48R
L65D;C83R;V100H
E44R;E45R
L65D;C83R

Variants of: B2
Details: with cfa36_mouse Cfap36, Q8C6E0

Effect of a mutation on the interaction, decreasing interaction strength:
MGLDTILKKMKQKERELRLLMLGLDNAGKTTILKKFNGEDVDTISPTLGFNIKTLEHRGFKLNIWDVGGQKSLRSYWRNYFESTDGLIWVVDSADRQRMQDCQRELQSLLVEERLAGATLLIFANKQDLPGALSCNAIQEALELDSIRSHHWRIQGCSAVTGEDLLPGIDWLLDDISSRVFTAD [L4D]
MGLLTILKKMKQKERELRLLMLGLDNAGKTTILKKFNGEDVDTISPTLGANIKTLEHRGFKLNIWDVGGQKSLRSYWRNYFESTDGLIWVVDSADRQRMQDCQRELQSLLVEERLAGATLLIFANKQDLPGALSCNAIQEALELDSIRSHHWRIQGCSAVTGEDLLPGIDWLLDDISSRVFTAD [F50A]
